Data published in patent publication US20220372138A1 (IOMX THERAPEUTICS, published 2022).
Positions count from the first letter of the chain named.

T1: murine IGSF11 expressed on cells (mouse, UniProt P0C673 23-428)
T1 construct: MC38-IGSF11, CT26-IGSF11, MC38-wt (naturally expresses murine IGSF11)
T1 sequence: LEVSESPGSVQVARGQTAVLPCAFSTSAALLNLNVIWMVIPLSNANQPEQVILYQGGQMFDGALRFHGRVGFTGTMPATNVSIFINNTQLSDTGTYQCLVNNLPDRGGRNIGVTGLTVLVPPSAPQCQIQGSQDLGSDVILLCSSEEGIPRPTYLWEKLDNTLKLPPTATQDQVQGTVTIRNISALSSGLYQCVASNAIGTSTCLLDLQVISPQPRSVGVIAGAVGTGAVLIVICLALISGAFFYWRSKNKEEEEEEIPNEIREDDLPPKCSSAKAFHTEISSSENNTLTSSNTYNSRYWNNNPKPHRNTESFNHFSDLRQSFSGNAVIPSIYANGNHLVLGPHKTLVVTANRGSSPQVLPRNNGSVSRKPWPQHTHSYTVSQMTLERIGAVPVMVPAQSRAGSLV

T2: extracellular domain (ECD) of human IGSF11 (VSIG3), recombinant (human, UniProt Q5DX21 23-241)
T2 construct: biotinylated where captured on streptavidin; tags of the reagent not always stated; also called IGSF11 (ECD domain); ECD-IGSF11
T2 sequence: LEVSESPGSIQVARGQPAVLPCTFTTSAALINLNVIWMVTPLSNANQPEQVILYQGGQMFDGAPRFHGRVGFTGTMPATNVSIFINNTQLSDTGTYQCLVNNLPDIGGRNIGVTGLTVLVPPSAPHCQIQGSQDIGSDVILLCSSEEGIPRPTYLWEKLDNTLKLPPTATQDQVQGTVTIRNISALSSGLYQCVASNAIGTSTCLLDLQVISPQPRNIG

T3: IgV domain of human IGSF11 fused to murine IgG2a Fc (human, UniProt Q5DX21 23-143)
T3 construct: not shown: murine IgG2a Fc-region
T3 sequence: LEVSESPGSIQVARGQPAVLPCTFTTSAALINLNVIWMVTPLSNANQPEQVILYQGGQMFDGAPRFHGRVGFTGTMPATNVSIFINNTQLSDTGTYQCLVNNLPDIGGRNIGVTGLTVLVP

T4: full-length ECD of human IGSF11 fused to murine Fc (human, UniProt Q5DX21 23-241)
T4 construct: also called Fc-fusion IGSF11 ECD; not shown: murine Fc
T4 sequence: T2 sequence

T5: human IGSF11 (VSIG3) expressed on cells (human, UniProt Q5DX21 23-431)
T5 sequence: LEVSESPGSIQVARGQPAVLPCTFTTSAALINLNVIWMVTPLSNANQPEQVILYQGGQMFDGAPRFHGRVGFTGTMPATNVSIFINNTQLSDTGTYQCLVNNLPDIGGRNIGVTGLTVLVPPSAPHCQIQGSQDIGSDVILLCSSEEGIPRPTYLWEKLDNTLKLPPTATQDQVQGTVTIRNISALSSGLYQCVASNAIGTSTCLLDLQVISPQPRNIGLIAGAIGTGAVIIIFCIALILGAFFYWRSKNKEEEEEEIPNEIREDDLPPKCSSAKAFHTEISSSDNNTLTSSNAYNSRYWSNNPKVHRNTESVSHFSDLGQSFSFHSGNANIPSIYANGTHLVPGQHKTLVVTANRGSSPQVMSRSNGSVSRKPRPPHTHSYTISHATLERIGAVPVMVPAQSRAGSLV

T6: IgC2 domain of human IGSF11 fused to murine IgG2a Fc (human, UniProt Q5DX21 137-241)
T6 construct: not shown: murine IgG2a Fc-region
T6 sequence: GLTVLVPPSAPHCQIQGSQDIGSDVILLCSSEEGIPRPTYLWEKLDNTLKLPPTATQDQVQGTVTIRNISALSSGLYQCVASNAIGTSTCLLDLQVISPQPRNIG

T7: ECD of cynomolgus monkey IGSF11, recombinant biotinylated (cynomolgus monkey, UniProt Q5DX21 23-241 (human entry))
T7 construct: whole entry named
T7 chain: T2 sequence with P17T, I83V, A185T, S187T

T8: ECD of murine IGSF11, recombinant biotinylated (mouse, UniProt P0C673 23-240)
T8 construct: whole entry named; also called Mouse IGSF11
T8 sequence: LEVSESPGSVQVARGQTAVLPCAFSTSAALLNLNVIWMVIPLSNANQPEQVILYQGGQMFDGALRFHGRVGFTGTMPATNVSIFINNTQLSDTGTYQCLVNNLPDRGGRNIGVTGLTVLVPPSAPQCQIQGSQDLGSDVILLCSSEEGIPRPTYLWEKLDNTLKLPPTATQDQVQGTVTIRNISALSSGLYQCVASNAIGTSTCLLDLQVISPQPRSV

B1: C-007 (IgG1 format) (antibody, V domains shown)
VH: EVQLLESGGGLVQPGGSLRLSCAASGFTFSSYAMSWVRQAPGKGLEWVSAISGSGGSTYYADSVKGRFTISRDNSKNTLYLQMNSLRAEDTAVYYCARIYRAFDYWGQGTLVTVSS
VL: ASVLTQPPSVSAAPGQKVTISCSGSSSNIGNNYVSWYQQLPGTAPKLLIYDNNKRPSGIPDRFSGSKSGTSATLGITGLQAEDEADYYCQLYEEEHSTWVFGGGTKLTVL
B2: C-001 (IgG1 format) (antibody, V domains shown)
VH: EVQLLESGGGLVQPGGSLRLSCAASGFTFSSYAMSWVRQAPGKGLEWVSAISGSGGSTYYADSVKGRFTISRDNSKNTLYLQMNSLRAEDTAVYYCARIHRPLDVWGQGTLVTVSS
VL: B1 VL with Q90G, L91S, Y92W, E93L, H96R, T98Q, W99Y
B3: D-115 (IgG format) (antibody, V domains shown)
VH: EVQLLESGGGLVQPGGSLRLSCAASGFTFQFSALSWVRQAPGKGLEWVSAISYGGGSKYYADSVKGRFTISRDNSKNTLYLQMNSLRAEDTAVYYCARDSRDAYGVAFDLWGQGTMVTVSS
VL: ASVLTQPPSVSAAPGQKVTISCSGSSSNIGNNYVSWYQQLPGTAPKLLIYDNNKRPSGIPDRFSGSKSGTSATLGITGLQAEDEADYYCQSYESRLFVFGGGTKLTVL
B4: C-003 (IgG1 format) (antibody, V domains shown)
VH: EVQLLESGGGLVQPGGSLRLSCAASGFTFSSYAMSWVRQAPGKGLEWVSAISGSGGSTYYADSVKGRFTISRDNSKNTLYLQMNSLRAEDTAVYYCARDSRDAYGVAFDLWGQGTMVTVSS
VL: B3 VL with Q90L, E93T, R95S, L96Q, F97Y
B5: C-004 (Fab format) (Fab, V domains shown)
VH: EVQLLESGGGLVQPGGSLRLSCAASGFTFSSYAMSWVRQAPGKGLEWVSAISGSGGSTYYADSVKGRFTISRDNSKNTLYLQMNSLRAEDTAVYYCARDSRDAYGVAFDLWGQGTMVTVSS
VL: B1 VL with Q90L, L91T, Y92W, E93T, E94G, E95A, H96G, S97R, T98I, W99F
notes: Fab from E. coli lysate
B6: C-018 (Fab format) (Fab, V domains shown)
VH: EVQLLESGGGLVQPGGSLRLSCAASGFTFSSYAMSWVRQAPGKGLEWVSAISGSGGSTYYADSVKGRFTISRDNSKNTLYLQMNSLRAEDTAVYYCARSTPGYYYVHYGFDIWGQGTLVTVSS
VL: SYELTQPPSVSVSPGQTASITCSGDKLGDKYASWYQQKPGQSPVLVIYQDSKRPSGIPERFSGSNSGNTATLTISGTQAEDEADYYCQAWSTSTHSWVFGGGTKLTVL
notes: Fab from E. coli lysate
B7: C-019 (Fab format) (Fab, V domains shown)
VH: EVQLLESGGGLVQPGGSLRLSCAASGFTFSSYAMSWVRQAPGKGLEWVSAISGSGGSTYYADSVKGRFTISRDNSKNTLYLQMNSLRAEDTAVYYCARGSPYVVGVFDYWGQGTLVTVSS
VL: DIQMTQSPSSLSASVGDRVTITCRASQSISSYLNWYQQKPGKAPKLLIYAASSLQSGVPSRFSGSGSGTDFTLTISSLQPEDFATYYCQQWQHEPPYTFGQGTKVEIK
notes: Fab from E. coli lysate

Columns and labels:
[1] = target: T1, murine IGSF11 expressed on cells; assay: IgG FACS MC38-IGSF11
Text: (§1) Unbound antibodies were removed by washing the cells three time with FACS buffer. Bound antibodies were detected with a mouse anti-human IgG antibody conjugated with AlexaFluor647.

[2] = target: T1, murine IGSF11 expressed on cells; assay: IgG FACS CT26-IGSF11
Text: as §1

[3] = target: T2, extracellular domain (ECD) of human …; assay: BLI apparent affinity, IgG on AHC sensor, IGSF11 ECD 100 nM
Text: Briefly, various APBs were loaded on an optical biosensor via a commercially available Capture System (AHC sensors, ForteBio).

[4] = target: T3, IgV domain of human IGSF11 fused to …; assay: IgG ELISA;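 further: ELISA binding of IgG antibodies to plate-coated IGSF11 Fc-fusion proteins (full-length ECD, IgV or IgC2 domain), detected via HRP-labelled anti-human IgG with TMB development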
Experimental: (§2) Binding of IgG antibodies to each of the full-length ECD of IGSF11, to the IgV domain of IGSF11 and to the IgC2 domain of IGSF11, was tested in the ELISA assay as follows: briefly, recombinant domains of Fc-fusion IGSF11 proteins were coated at 2 ug/mL on a 384-well Maxisorp plate. The surface was blocked with 2% (w/v) skim milk powder in PBST. […] After removing all unbound antibodies by 3 wash cycles with PBST, bound IgG ABPs were detected with a goat anti-human IgG antibody conjugated with horseradish peroxidase. After three wash cycles with PBST the ELISA was developed with TMB substrate.

[5] = target: T4, full-length ECD of human IGSF11 fused …; assay: IgG ELISA;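 further: ELISA binding of IgG antibodies to plate-coated IGSF11 Fc-fusion proteins (full-length ECD, IgV or IgC2 domain), detected via HRP-labelled anti-human IgG with TMB development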
Experimental: as §2

[6] = target: T5, human IGSF11 (VSIG3) expressed on cells; assay: IgG FACS MDA-MB-231-IGSF11
Text: as §1

[7] = target: T5, human IGSF11 (VSIG3) expressed on cells; assay: IgG FACS Colo741
Text: as §1

[8] = target: T6, IgC2 domain of human IGSF11 fused to …; assay: IgG ELISA;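 further: ELISA binding of IgG antibodies to plate-coated IGSF11 Fc-fusion proteins (full-length ECD, IgV or IgC2 domain), detected via HRP-labelled anti-human IgG with TMB development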
Experimental: as §2

[9] = target: T7, ECD of cynomolgus monkey IGSF11, …; assay: Fab ELISA
Experimental: (§3) In order to identify IGSF11-specific binding ABPs, monoclonal Fabs expressed from E. coli were generated from the enriched set of anti-IGFS11 antibody-expressing phage. After bacterial lysis, the Fabs were tested for their binding properties and cross-reactivity profile on recombinant ECD-IGSF11 (human, mouse and cynomolgus monkey) by standard ELISA. Briefly, biotinylated recombinant ECD-IGSF11 from human, mouse, or cynomolgus monkey were immobilized at 2 ug/mL on a streptavidin-coated 384-well Maxisorp plate. The surface was blocked with 2% (w/v) skim milk powder in PBST. After three wash cycles with PBST, a bacterial lysate of each of the anti-IGSF11 Fabs in 2% (w/v) skim milk powder was applied to the immobilized IGSF11 and incubated for 1 h. After removing all unbound Fab by 3 wash cycles with PBST, bound Fab antibodies were detected with a goat anti-human Fab antibody conjugated with horseradish peroxidase. After three wash cycles with PBST the ELISA was developed with TMB substrate.

[10] = target: T2, extracellular domain (ECD) of human …; assay: Fab ELISA
Experimental: as §3

[11] = target: T8, ECD of murine IGSF11, recombinant …; assay: Fab ELISA
Experimental: as §3

Streptavidin = Streptavidin (UniProt P22629 37-163, limits assumed); assay: Fab ELISA
Chain of Streptavidin (P22629 37-163 limits assumed): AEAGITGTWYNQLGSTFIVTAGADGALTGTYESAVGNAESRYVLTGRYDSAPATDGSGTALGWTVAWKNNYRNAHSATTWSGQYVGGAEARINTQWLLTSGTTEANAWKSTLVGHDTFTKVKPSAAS
Experimental: as §3

Binder	EC50 [1] [µM]	EC50 [2] [µM]	Kd [3] [µM]	EC50 [4] [µM]	EC50 [5] [µM]	EC50 [6] [µM]	EC50 [7] [µM]	EC50 [8] [µM]	A450 [9]	A450 [10]	A450 [11]	A450 (Streptavidin)
B1	< 0.02	0.02 to 0.05	< 0.125	< 0.001	< 0.001	< 0.01						
B2	0.05 to 0.1	0.02 to 0.05	< 0.075	< 0.001	< 0.001	< 0.01						
B3							< 0.0001					
B4	< 0.02	< 0.02	< 0.015		< 0.001	0.01 to 0.015		< 0.001				
B5									< 1	< 1	< 1	< 0.1
B6									< 1	< 1	< 1	< 0.1
B7									< 1	< 1	< 1	< 0.1
